Laboratory results as given in the supplement of paper PMC7877785.
± gives the uncertainty stated by the source.

Test: self-splicing fitness, log relative to wild type (ln ratio); higher = more splicing; Tetrahymena group I intron in knt gene, E. coli kanamycin selection, DiMSum; sequences stand for … in CUCUCU…GGAGGGAAAAGUUAUCAGGCAUGCACCUGGUAGCUAGUCUUUAAACCAAUAGAUUGCAUCGGUUUAAAAGGCAAGACCGUCAAAUUGCGGGAAAGGGGUCAACAGCCGUUCAGUACCAAGUCUCAGGGGAAACUUUGAGAUGGCCUUGCAAAGGGUAUGGUAAUAAGCUGACGGACAUGGUCCUAACCACGCAGCCAAGUCCUAAGUCAACAGAUCUUCUGUUGAUAUGGAUGCAGUUCACAGACUAAAUGUCGGUCGGGGAAGAUGUAUUCUUCUCAUAAGAUAUAGUCGGACCUCUCCUUAAUGGGAGCUAGCGGAUGAAGUGAUGCAACACUGGAGCCGCUGGGAACUAAUUUGUAUGCGAAAGUAUAUUGAUUAGUUUUGGAGUACUCGUGGUCG
Summary of the method: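 A randomised library covering all eight P1ex-region intron nucleotides was built with the intron in the knt kanamycin-resistance gene on pET-22b(+) and held in E. coli BL21(DE3). Cells were grown overnight at 37°C or 30°C on LB agar, with or without 25 μg/mL kanamycin, plus 100 μg/mL carbenicillin, 50 μM IPTG and 0.2% rhamnose, and pooled colonies were amplicon-sequenced on an Illumina HiSeq 2500. DiMSum fitness is the error-weighted combination of wild-type-normalised replicate fold changes, kanamycin versus none.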

Row | Sequence | self-splicing fitness (ln) (30 °C) | self-splicing fitness (ln) (37 °C)
1 | AUAGAGCAAUAUUACGACUG | -2.11 ± 0.13 | -0.786 ± 0.18
2 | AUAGAGCAAUAUUACGCAAG | -2.97 ± 0.2 | -1.24 ± 0.22
3 | AUAGAGCAAUAUUACGCUUC | -2.52 ± 0.24 | -1.47 ± 0.25
4 | AUAGAGCAAUAUUACGGGGU | -3.46 ± 0.21 | -3.53 ± 0.23
5 | AUAGAGCAAUAUUACGGUCC | -2.61 ± 0.38 | 
6 | AUAGAGCAAUAUUACGGUGG | -1.24 ± 0.26 | 
7 | AUAGAGCAAUAUUACGUAAG | -1.94 ± 0.22 | -1.34 ± 0.25
8 | AUAGAGCAAUAUUACGUAUA | -2.1 ± 0.19 | -0.371 ± 0.21
9 | AUAGAGCAAUAUUACGUCGA | -2.82 ± 0.19 | -1.04 ± 0.17
10 | AUAGAGCAAUAUUACGUCUC | -0.924 ± 0.15 | -0.745 ± 0.16
11 | AUAGAGCAAUAUUACGUUAU | -0.975 ± 0.089 | -0.177 ± 0.11
12 | AUAGAGCAAUAUUACGUUGC | -2.95 ± 0.2 | -2.05 ± 0.26
13 | AUAUAGCAAUAUUACGAAAC | -2.85 ± 0.29 | -2.03 ± 0.34
14 | AUAUAGCAAUAUUACGACUA | -0.8 ± 0.3 | -0.351 ± 0.29
15 | AUAUAGCAAUAUUACGAGCU | -2.13 ± 0.1 | -1.11 ± 0.1
16 | AUAUAGCAAUAUUACGAGGA |  | -2.44 ± 0.38
17 | AUAUAGCAAUAUUACGAGGU | -3.66 ± 0.26 | -1.44 ± 0.15
18 | AUAUAGCAAUAUUACGCAAU | -1.49 ± 0.17 | -0.77 ± 0.22
19 | AUAUAGCAAUAUUACGCAGG | -3.74 ± 0.31 | -1.69 ± 0.23
20 | AUAUAGCAAUAUUACGCCGC | -2.58 ± 0.49 | 
21 | AUAUAGCAAUAUUACGCCGG | -3.65 ± 0.37 | -0.796 ± 0.3
22 | AUAUAGCAAUAUUACGCCUA | -0.306 ± 0.17 | -0.0941 ± 0.12
23 | AUAUAGCAAUAUUACGCCUG | -2.24 ± 0.23 | -1.6 ± 0.24
24 | AUAUAGCAAUAUUACGCGCA | -0.342 ± 0.15 | -0.724 ± 0.14
25 | AUAUAGCAAUAUUACGGAUG | -3.03 ± 0.25 | -2.15 ± 0.28
26 | AUAUAGCAAUAUUACGGCAA | -0.751 ± 0.18 | -0.989 ± 0.19

Row | Sequence | self-splicing fitness (ln) (30 °C) | self-splicing fitness (ln) (37 °C)
27 | AUAUAGCAAUAUUACGGCUG | -0.816 ± 0.14 | 0.663 ± 0.19
28 | AUAUAGCAAUAUUACGGGCC | -2.81 ± 0.3 | -2.86 ± 0.43
29 | AUAUAGCAAUAUUACGGGUU | -3.43 ± 0.14 | -2.51 ± 0.14
30 | AUAUAGCAAUAUUACGGUAU | -3.75 ± 0.32 | -1.45 ± 0.2
31 | AUAUAGCAAUAUUACGGUGU | -2.03 ± 0.16 | -1.38 ± 0.17
32 | AUAUAGCAAUAUUACGUCAU | -2.43 ± 0.14 | -1.15 ± 0.14
33 | AUAUAGCAAUAUUACGUUUG | -2.71 ± 0.23 | -2.21 ± 0.26
34 | AUCAAGCAAUAUUACGAAAA | -2.84 ± 0.36 | -2.03 ± 0.27
35 | AUCAAGCAAUAUUACGAAUA | -2.36 ± 0.21 | -1.44 ± 0.17
36 | AUCAAGCAAUAUUACGACAU | 0.105 ± 0.011 | 0.377 ± 0.032
37 | AUCAAGCAAUAUUACGACCC | -1.34 ± 0.17 | -0.0224 ± 0.3
38 | AUCAAGCAAUAUUACGACUG | -1.59 ± 0.11 | -1.27 ± 0.13
39 | AUCAAGCAAUAUUACGAGAC | -3.01 ± 0.3 | -1.87 ± 0.19
40 | AUCAAGCAAUAUUACGAUCU | -1.37 ± 0.1 | -0.575 ± 0.12
41 | AUCAAGCAAUAUUACGAUUA | -1.28 ± 0.11 | -0.622 ± 0.13
42 | AUCAAGCAAUAUUACGCAAC | -2.61 ± 0.14 | -2.37 ± 0.22
43 | AUCAAGCAAUAUUACGCGUC | -3.45 ± 0.23 | -1.41 ± 0.16
44 | AUCAAGCAAUAUUACGCUCC | -0.122 ± 0.16 | -1.04 ± 0.17
45 | AUCAAGCAAUAUUACGCUUC |  | -2.01 ± 0.46
46 | AUCAAGCAAUAUUACGGAUU | -3.31 ± 0.17 | -1.2 ± 0.14
47 | AUCAAGCAAUAUUACGGCAA | -0.819 ± 0.088 | -0.213 ± 0.097
48 | AUCAAGCAAUAUUACGGCAC | -1.67 ± 0.1 | -0.0454 ± 0.16
49 | AUCAAGCAAUAUUACGGGAC | -2.23 ± 0.081 | -1.11 ± 0.1
50 | AUCAAGCAAUAUUACGUACA | -1.21 ± 0.1 | -0.544 ± 0.12
51 | AUCAAGCAAUAUUACGUACC | -0.82 ± 0.12 | -0.953 ± 0.17
52 | AUCAAGCAAUAUUACGUACU | -0.173 ± 0.057 | 0.183 ± 0.066

Row | Sequence | self-splicing fitness (ln) (30 °C) | self-splicing fitness (ln) (37 °C)
53 | AUCAAGCAAUAUUACGUAGC | -4.82 ± 0.45 | -2.1 ± 0.31
54 | AUCAAGCAAUAUUACGUCCU | -0.37 ± 0.088 | 0.533 ± 0.12
55 | AUCAAGCAAUAUUACGUGUA | -2.39 ± 0.14 | -1.42 ± 0.12
56 | AUCAAGCAAUAUUACGUGUC | -3.9 ± 0.15 | -2.6 ± 0.16
57 | AUCAAGCAAUAUUACGUUGC | -3.84 ± 0.18 | -2 ± 0.15
58 | AUCCAGCAAUAUUACGAAUC | -2.04 ± 0.15 | -1.87 ± 0.22
59 | AUCCAGCAAUAUUACGACUU | 0.167 ± 0.074 | 0.32 ± 0.086
60 | AUCCAGCAAUAUUACGAGAU | -3.77 ± 0.2 | -2.22 ± 0.19
61 | AUCCAGCAAUAUUACGAGGU | -3.37 ± 0.23 | -2.65 ± 0.22
62 | AUCCAGCAAUAUUACGAUAC | -2.91 ± 0.23 | -0.914 ± 0.15
63 | AUCCAGCAAUAUUACGAUAG | -2.71 ± 0.25 | -2.84 ± 0.31
64 | AUCCAGCAAUAUUACGAUCC | -1.43 ± 0.21 | -0.865 ± 0.21
65 | AUCCAGCAAUAUUACGCCCU | -0.182 ± 0.15 | -0.00746 ± 0.21
66 | AUCCAGCAAUAUUACGCGGC | -2.86 ± 0.18 | -4.06 ± 0.24
67 | AUCCAGCAAUAUUACGCGUG | -2.3 ± 0.11 | -1.72 ± 0.11
68 | AUCCAGCAAUAUUACGGAAG | -1.1 ± 0.11 | -0.947 ± 0.14
69 | AUCCAGCAAUAUUACGGCCU | -0.115 ± 0.065 | 0.0854 ± 0.081
70 | AUCCAGCAAUAUUACGGGGA | -1.4 ± 0.11 | -1.71 ± 0.14
71 | AUCCAGCAAUAUUACGUACC | -2 ± 0.17 | -0.552 ± 0.32
72 | AUCCAGCAAUAUUACGUACG | -1.7 ± 0.11 | -0.813 ± 0.19
73 | AUCCAGCAAUAUUACGUCAU | -0.725 ± 0.041 | -0.313 ± 0.057
74 | AUCCAGCAAUAUUACGUCGC | -3.25 ± 0.24 | -2.08 ± 0.19
75 | AUCCAGCAAUAUUACGUGAG | -0.052 ± 0.045 | 0.237 ± 0.073
76 | AUCCAGCAAUAUUACGUGGU | -3.14 ± 0.12 | -2.9 ± 0.15
77 | AUCCAGCAAUAUUACGUUCA | -1.02 ± 0.068 | -0.265 ± 0.072
